Assay results as given in IntAct's records for PubMed 22404908.

B1: Rho-related GTP-binding protein RhoD (Homo sapiens), O00212 (parent)
chain: MTAAQAAGEEAPPGVRSVKVVLVGDGGCGKTSLLMVFADGAFPESYTPTVFERYMVNLQVKGKPVHLHIWDTAGQDDYDRLRPLFYPDASVLLLCFDVTSPNSFDNIFNRWYPEVNHFCKKVPIIVVGCKTDLRKDKSLVNKLRRNGLEPVTYHRGQEMARSVGAVAYLECSARLHDNVHAVFQEAAEVALSSRGRNFWRRITQGFCVVT

Variants of: B1
Conditions: with plxb1_human PLXNB1, O43157
Chain of plxb1_human PLXNB1, O43157 (O43157 whole entry): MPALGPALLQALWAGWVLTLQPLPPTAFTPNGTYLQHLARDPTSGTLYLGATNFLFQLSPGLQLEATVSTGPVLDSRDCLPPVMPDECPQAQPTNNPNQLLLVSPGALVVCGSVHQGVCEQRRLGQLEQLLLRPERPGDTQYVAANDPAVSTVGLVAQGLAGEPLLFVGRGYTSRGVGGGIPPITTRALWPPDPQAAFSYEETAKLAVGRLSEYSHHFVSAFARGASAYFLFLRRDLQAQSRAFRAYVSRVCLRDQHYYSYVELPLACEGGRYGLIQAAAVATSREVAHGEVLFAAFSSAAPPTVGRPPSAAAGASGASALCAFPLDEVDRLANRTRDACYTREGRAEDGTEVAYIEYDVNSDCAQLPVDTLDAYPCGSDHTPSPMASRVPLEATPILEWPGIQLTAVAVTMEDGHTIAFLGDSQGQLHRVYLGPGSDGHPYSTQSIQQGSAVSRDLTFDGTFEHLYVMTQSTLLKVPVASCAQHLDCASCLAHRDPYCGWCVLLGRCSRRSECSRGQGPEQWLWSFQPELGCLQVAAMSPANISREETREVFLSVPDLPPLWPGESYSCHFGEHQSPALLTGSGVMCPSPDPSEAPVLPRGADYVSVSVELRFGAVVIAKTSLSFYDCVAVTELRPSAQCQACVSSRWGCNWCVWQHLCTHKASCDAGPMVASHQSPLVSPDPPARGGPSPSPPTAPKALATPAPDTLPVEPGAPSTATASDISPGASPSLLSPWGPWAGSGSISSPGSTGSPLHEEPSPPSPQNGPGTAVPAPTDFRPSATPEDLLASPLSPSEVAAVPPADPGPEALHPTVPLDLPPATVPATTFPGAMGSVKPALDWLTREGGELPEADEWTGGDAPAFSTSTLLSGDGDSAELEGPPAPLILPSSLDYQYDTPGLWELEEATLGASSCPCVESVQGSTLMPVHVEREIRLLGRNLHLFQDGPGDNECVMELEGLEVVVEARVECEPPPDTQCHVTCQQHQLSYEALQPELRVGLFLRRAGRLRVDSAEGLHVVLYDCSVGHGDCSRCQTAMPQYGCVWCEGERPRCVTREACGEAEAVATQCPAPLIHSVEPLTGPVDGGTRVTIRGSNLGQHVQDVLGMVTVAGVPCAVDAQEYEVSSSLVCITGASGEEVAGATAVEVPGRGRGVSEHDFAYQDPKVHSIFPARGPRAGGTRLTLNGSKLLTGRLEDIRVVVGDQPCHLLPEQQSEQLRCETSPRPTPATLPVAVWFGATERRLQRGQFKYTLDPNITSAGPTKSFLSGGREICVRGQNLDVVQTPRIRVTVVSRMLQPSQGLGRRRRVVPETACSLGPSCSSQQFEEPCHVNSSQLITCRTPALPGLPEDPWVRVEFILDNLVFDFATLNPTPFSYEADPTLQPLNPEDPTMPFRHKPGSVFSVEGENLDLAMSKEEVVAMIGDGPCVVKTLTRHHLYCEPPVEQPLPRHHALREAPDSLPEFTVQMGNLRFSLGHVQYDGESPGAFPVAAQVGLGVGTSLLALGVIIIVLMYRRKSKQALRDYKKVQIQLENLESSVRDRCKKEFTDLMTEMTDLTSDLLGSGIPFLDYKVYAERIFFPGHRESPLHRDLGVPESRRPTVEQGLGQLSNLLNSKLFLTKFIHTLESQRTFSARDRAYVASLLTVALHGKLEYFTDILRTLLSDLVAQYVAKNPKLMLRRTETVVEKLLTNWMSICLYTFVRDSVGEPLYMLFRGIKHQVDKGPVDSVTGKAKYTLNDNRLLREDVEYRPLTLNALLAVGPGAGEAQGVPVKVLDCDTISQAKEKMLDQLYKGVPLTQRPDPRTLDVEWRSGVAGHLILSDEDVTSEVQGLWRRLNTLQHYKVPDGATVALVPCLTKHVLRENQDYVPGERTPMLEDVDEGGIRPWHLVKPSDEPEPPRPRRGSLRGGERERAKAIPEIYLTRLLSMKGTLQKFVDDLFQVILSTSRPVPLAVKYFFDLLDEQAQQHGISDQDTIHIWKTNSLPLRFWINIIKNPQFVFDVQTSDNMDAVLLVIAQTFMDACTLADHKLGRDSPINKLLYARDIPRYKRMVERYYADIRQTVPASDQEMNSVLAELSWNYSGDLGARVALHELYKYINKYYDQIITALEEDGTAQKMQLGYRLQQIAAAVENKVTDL

Row | effect of a mutation on the interaction | Variant
1 | disrupting interaction | MTAAQAAGEEAPPGVRSVKVVLVGDGGCGKKSLLMVFADGAFPESYTPTVFERYMVNLQVKGKPVHLHIWDTAGQDDYDRLRPLFYPDASVLLLCFDVTSPNSFDNIFNRWYPEVNHFCKKVPIIVVGCKTDLRKDKSLVNKLRRNGLEPVTYHRGQEMARSVGAVAYLECSARLHDNVHAVFQEAAEVALSSRGRNFWRRITQGFCVVT [T31K]
